Measured values published in patent US20250073311A1, “DOSAGE REGIME” (ZEALAND PHARMA A/S, priority 2021, published 2025).
Numbered stars: 1 amine (or outer) side, 2 acyl side, 3 side chain; on linkers, the order of the positions; unused ones are H or OH. Square brackets hold non-standard residues; d marks the D form. Side chains are listed from the residue outwards. * marks the point of attachment. C20 diacid = O=C(O)CCCCCCCCCCCCCCCCCCC(=O)*; C18 diacid = O=C(O)CCCCCCCCCCCCCCCCC(=O)*; γGlu = O=C(O)[C@H](CCC(=O)[*:2])N[*:1]; AEEA = NCCOCCOCC(=O)O; Aib = CC(C)(N)C(=O)O

T1: human GLP-2 receptor (hGLP2-R) (human, UniProt O95838)
T1 sequence: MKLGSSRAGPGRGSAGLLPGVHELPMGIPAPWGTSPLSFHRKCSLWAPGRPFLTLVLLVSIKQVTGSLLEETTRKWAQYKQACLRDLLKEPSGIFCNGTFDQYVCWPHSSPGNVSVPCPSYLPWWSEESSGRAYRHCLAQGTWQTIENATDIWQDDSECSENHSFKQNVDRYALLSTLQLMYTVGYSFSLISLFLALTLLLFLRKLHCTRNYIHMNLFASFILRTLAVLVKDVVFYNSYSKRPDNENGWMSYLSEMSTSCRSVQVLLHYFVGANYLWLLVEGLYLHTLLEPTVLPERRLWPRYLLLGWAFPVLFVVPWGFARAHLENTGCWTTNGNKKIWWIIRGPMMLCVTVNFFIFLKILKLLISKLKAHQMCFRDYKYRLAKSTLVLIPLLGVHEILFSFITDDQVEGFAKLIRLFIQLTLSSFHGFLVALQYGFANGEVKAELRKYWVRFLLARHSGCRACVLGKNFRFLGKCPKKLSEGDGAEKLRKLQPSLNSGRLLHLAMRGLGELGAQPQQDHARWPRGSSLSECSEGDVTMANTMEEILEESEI

B1: Compound 9 (peptide)
peptide: H-H[Aib]EGTFTSELATILDGK([γGlu-C18 diacid])AARDFIAWLIEHKITD-OH
SMILES: CC[C@H](C)[C@H](NC(=O)[C@H](Cc1ccccc1)NC(=O)[C@H](CC(=O)O)NC(=O)[C@H](CCCNC(=N)N)NC(=O)[C@H](C)NC(=O)[C@H](C)NC(=O)[C@H](CCCCNC(=O)CC[C@H](NC(=O)CCCCCCCCCCCCCCCCC(=O)O)C(=O)O)NC(=O)CNC(=O)[C@H](CC(=O)O)NC(=O)[C@H](CC(C)C)NC(=O)[C@@H](NC(=O)[C@@H](NC(=O)[C@H](C)NC(=O)[C@H](CC(C)C)NC(=O)[C@H](CCC(=O)O)NC(=O)[C@H](CO)NC(=O)[C@@H](NC(=O)[C@H](Cc1ccccc1)NC(=O)[C@@H](NC(=O)CNC(=O)[C@H](CCC(=O)O)NC(=O)C(C)(C)NC(=O)[C@@H](N)Cc1c[nH]cn1)[C@@H](C)O)[C@@H](C)O)[C@@H](C)O)[C@@H](C)CC)C(=O)N[C@@H](C)C(=O)N[C@@H](Cc1c[nH]c2ccccc12)C(=O)N[C@@H](CC(C)C)C(=O)N[C@H](C(=O)N[C@@H](CCC(=O)O)C(=O)N[C@@H](Cc1c[nH]cn1)C(=O)N[C@@H](CCCCN)C(=O)N[C@H](C(=O)N[C@H](C(=O)N[C@@H](CC(=O)O)C(=O)O)[C@@H](C)O)[C@@H](C)CC)[C@@H](C)CC
B2: Compound 8 (peptide)
peptide: H-H[Aib]EGSFTSELATILDGK([γGlu-C18 diacid])AARDFIAWLIEHKITD-OH
SMILES: CC[C@H](C)[C@H](NC(=O)[C@H](Cc1ccccc1)NC(=O)[C@H](CC(=O)O)NC(=O)[C@H](CCCNC(=N)N)NC(=O)[C@H](C)NC(=O)[C@H](C)NC(=O)[C@H](CCCCNC(=O)CC[C@H](NC(=O)CCCCCCCCCCCCCCCCC(=O)O)C(=O)O)NC(=O)CNC(=O)[C@H](CC(=O)O)NC(=O)[C@H](CC(C)C)NC(=O)[C@@H](NC(=O)[C@@H](NC(=O)[C@H](C)NC(=O)[C@H](CC(C)C)NC(=O)[C@H](CCC(=O)O)NC(=O)[C@H](CO)NC(=O)[C@@H](NC(=O)[C@H](Cc1ccccc1)NC(=O)[C@H](CO)NC(=O)CNC(=O)[C@H](CCC(=O)O)NC(=O)C(C)(C)NC(=O)[C@@H](N)Cc1c[nH]cn1)[C@@H](C)O)[C@@H](C)O)[C@@H](C)CC)C(=O)N[C@@H](C)C(=O)N[C@@H](Cc1c[nH]c2ccccc12)C(=O)N[C@@H](CC(C)C)C(=O)N[C@H](C(=O)N[C@@H](CCC(=O)O)C(=O)N[C@@H](Cc1c[nH]cn1)C(=O)N[C@@H](CCCCN)C(=O)N[C@H](C(=O)N[C@H](C(=O)N[C@@H](CC(=O)O)C(=O)O)[C@@H](C)O)[C@@H](C)CC)[C@@H](C)CC
B3: Compound 6 (peptide)
peptide: H-H[Aib]EGTFTSELATILDK([γGlu-C18 diacid])KAARDFIAWLIEHKITD-OH
B4: Compound 66 (peptide)
peptide: H-H[Aib]EGSFTSELATILDEQAAK([AEEA-AEEA-KEK-γGlu-C20 diacid])DFIAWLIEHKITD-OH
B5: Compound 65 (peptide)
peptide: H-H[Aib]EGTFTSELATILDEQAAK([AEEA-KEK-γGlu-C20 diacid])DFIAWLIEHKITD-OH
B6: Compound 4 (peptide)
peptide: H-H[Aib]EGTFSSELATILDK([γGlu-C18 diacid])KAARDFIAWLIEHKITD-OH
B7: Compound 5 (peptide)
peptide: H-H[Aib]EGSFTSELATILDK([γGlu-C18 diacid])KAARDFIAWLIEHKITD-OH
SMILES: CC[C@H](C)[C@H](NC(=O)[C@H](Cc1ccccc1)NC(=O)[C@H](CC(=O)O)NC(=O)[C@H](CCCNC(=N)N)NC(=O)[C@H](C)NC(=O)[C@H](C)NC(=O)[C@H](CCCCN)NC(=O)[C@H](CCCCNC(=O)CC[C@H](NC(=O)CCCCCCCCCCCCCCCCC(=O)O)C(=O)O)NC(=O)[C@H](CC(=O)O)NC(=O)[C@H](CC(C)C)NC(=O)[C@@H](NC(=O)[C@@H](NC(=O)[C@H](C)NC(=O)[C@H](CC(C)C)NC(=O)[C@H](CCC(=O)O)NC(=O)[C@H](CO)NC(=O)[C@@H](NC(=O)[C@H](Cc1ccccc1)NC(=O)[C@H](CO)NC(=O)CNC(=O)[C@H](CCC(=O)O)NC(=O)C(C)(C)NC(=O)[C@@H](N)Cc1c[nH]cn1)[C@@H](C)O)[C@@H](C)O)[C@@H](C)CC)C(=O)N[C@@H](C)C(=O)N[C@@H](Cc1c[nH]c2ccccc12)C(=O)N[C@@H](CC(C)C)C(=O)N[C@H](C(=O)N[C@@H](CCC(=O)O)C(=O)N[C@@H](Cc1c[nH]cn1)C(=O)N[C@@H](CCCCN)C(=O)N[C@H](C(=O)N[C@H](C(=O)N[C@@H](CC(=O)O)C(=O)O)[C@@H](C)O)[C@@H](C)CC)[C@@H](C)CC
B8: Compound 64 (peptide)
peptide: H-H[Aib]EGSFTSELATILDEQAAK([AEEA-KEK-γGlu-C20 diacid])DFIAWLIEHKITD-OH
B9: Compound 68 (peptide)
peptide: H-H[Aib]EGSFTSELATILDAKAAK([AEEA-KEK-γGlu-C20 diacid])DFIAWLIEHKITD-OH
B10: Compound 10 (peptide)
peptide: H-H[Aib]EGTFSSELATILDK([γGlu-C18 diacid])LAARDFIAWLIEHKITD-OH
SMILES: CC[C@H](C)[C@H](NC(=O)[C@H](Cc1ccccc1)NC(=O)[C@H](CC(=O)O)NC(=O)[C@H](CCCNC(=N)N)NC(=O)[C@H](C)NC(=O)[C@H](C)NC(=O)[C@H](CC(C)C)NC(=O)[C@H](CCCCNC(=O)CC[C@H](NC(=O)CCCCCCCCCCCCCCCCC(=O)O)C(=O)O)NC(=O)[C@H](CC(=O)O)NC(=O)[C@H](CC(C)C)NC(=O)[C@@H](NC(=O)[C@@H](NC(=O)[C@H](C)NC(=O)[C@H](CC(C)C)NC(=O)[C@H](CCC(=O)O)NC(=O)[C@H](CO)NC(=O)[C@H](CO)NC(=O)[C@H](Cc1ccccc1)NC(=O)[C@@H](NC(=O)CNC(=O)[C@H](CCC(=O)O)NC(=O)C(C)(C)NC(=O)[C@@H](N)Cc1c[nH]cn1)[C@@H](C)O)[C@@H](C)O)[C@@H](C)CC)C(=O)N[C@@H](C)C(=O)N[C@@H](Cc1c[nH]c2ccccc12)C(=O)N[C@@H](CC(C)C)C(=O)N[C@H](C(=O)N[C@@H](CCC(=O)O)C(=O)N[C@@H](Cc1c[nH]cn1)C(=O)N[C@@H](CCCCN)C(=O)N[C@H](C(=O)N[C@H](C(=O)N[C@@H](CC(=O)O)C(=O)O)[C@@H](C)O)[C@@H](C)CC)[C@@H](C)CC
B11: Compound 67 (peptide)
peptide: H-H[Aib]EGTFTSELATILDEQAAK([AEEA-AEEA-KEK-γGlu-C20 diacid])DFIAWLIEHKITD-OH
B12: Compound 7 (peptide)
peptide: H-H[Aib]EGTFSSELATILDGK([γGlu-C18 diacid])AARDFIAWLIEHKITD-OH
SMILES: CC[C@H](C)[C@H](NC(=O)[C@H](Cc1ccccc1)NC(=O)[C@H](CC(=O)O)NC(=O)[C@H](CCCNC(=N)N)NC(=O)[C@H](C)NC(=O)[C@H](C)NC(=O)[C@H](CCCCNC(=O)CC[C@H](NC(=O)CCCCCCCCCCCCCCCCC(=O)O)C(=O)O)NC(=O)CNC(=O)[C@H](CC(=O)O)NC(=O)[C@H](CC(C)C)NC(=O)[C@@H](NC(=O)[C@@H](NC(=O)[C@H](C)NC(=O)[C@H](CC(C)C)NC(=O)[C@H](CCC(=O)O)NC(=O)[C@H](CO)NC(=O)[C@H](CO)NC(=O)[C@H](Cc1ccccc1)NC(=O)[C@@H](NC(=O)CNC(=O)[C@H](CCC(=O)O)NC(=O)C(C)(C)NC(=O)[C@@H](N)Cc1c[nH]cn1)[C@@H](C)O)[C@@H](C)O)[C@@H](C)CC)C(=O)N[C@@H](C)C(=O)N[C@@H](Cc1c[nH]c2ccccc12)C(=O)N[C@@H](CC(C)C)C(=O)N[C@H](C(=O)N[C@@H](CCC(=O)O)C(=O)N[C@@H](Cc1c[nH]cn1)C(=O)N[C@@H](CCCCN)C(=O)N[C@H](C(=O)N[C@H](C(=O)N[C@@H](CC(=O)O)C(=O)O)[C@@H](C)O)[C@@H](C)CC)[C@@H](C)CC

Target: human glucagon-like peptide 1 receptor (GLP-1R) (human, UniProt P43220)
Experiment: cell-based or functional assay

Binder | EC50 GLP-1 (nM), cAMP AlphaScreen
B1 | 0.056 nM
B2 | 0.22 nM
B3 | 0.058 nM
B4 | 0.65 nM
B5 | 0.13 nM
B6 | 0.66 nM
B7 | 0.17 nM
B8 | 0.49 nM
B9 | 0.084 nM
B10 | 1.8 nM
B11 | 0.16 nM
B12 | 0.92 nM

Target: T1, human GLP-2 receptor (hGLP2-R)
Experiment: cell-based or functional assay

Binder | EC50 GLP-2 (nM), cAMP AlphaScreen
B1 | 0.056 nM
B2 | 0.039 nM
B3 | 0.12 nM
B4 | 0.18 nM
B5 | 0.35 nM
B6 | 0.087 nM
B7 | 0.063 nM
B8 | 0.2 nM
B9 | 0.1 nM
B10 | 0.087 nM
B11 | 0.22 nM
B12 | 0.019 nM
